Laboratory results taken from PMC10299496, “Effect of Chemical Chaperones on the Stability of Proteins during Heat– or Freeze–Thaw Stress” (International Journal of Molecular Sciences, 2023).
Where “and” joins values, the source holds several entries; their conditions need not be identical. Equal entries are not always repeated.

Key:
[1] = biological target: the molecule itself; assay: AUC; sedimentation velocity, c(M) distributions; GDH 0.2 mg/mL pre-heated 10 min at 50 °C with or without HPCD, Sorb, Tre or Bet, then cooled; run at 25 °C, 48,000 rpm, 0.1 M Na-phosphate pH 7.6, 0.01 M NaCl
[2] = biological target: the molecule itself; assay: AUC; sedimentation velocity, c(M) distributions; Phb 0.35 mg/mL pre-heated 40 min at 48 °C with or without HPCD, Tre or Bet, cooled 2 min in ice water; run at 25 °C, 48,000 rpm, 0.03 M HEPES pH 6.8, 0.15 M NaCl

B1: Glutamate dehydrogenase from bovine liver (enzyme)
chain: not shown
notes: glutamate dehydrogenase, bovine liver; homohexamer of six identical subunits of 56-57 kDa; also called GDH; GDHfr (frozen-thawed GDH)
- stoichiometry N [1]: 6 and 2

B2: Glycogen phosphorylase b from rabbit skeletal muscle (enzyme, UniProt P00489 1-843, looked up)
chain: MSRPLSDQEKRKQISVRGLAGVENVTELKKNFNRHLHFTLVKDRNVATPRDYYFALAHTVRDHLVGRWIRTQQHYYEKDPKRIYYLSLEFYMGRTLQNTMVNLALENACDEATYQLGLDMEELEEIEEDAGLGNGGLGRLAACFLDSMATLGLAAYGYGIRYEFGIFNQKICGGWQMEEADDWLRYGNPWEKARPEFTLPVHFYGRVEHTSQGAKWVDTQVVLAMPYDTPVPGYRNNVVNTMRLWSAKAPNDFNLKDFNVGGYIQAVLDRNLAENISRVLYPNDNFFEGKELRLKQEYFVVAATLQDIIRRFKSSKFGCRDPVRTNFDAFPDKVAIQLNDTHPSLAIPELMRVLVDLERLDWDKAWEVTVKTCAYTNHTVLPEALERWPVHLLETLLPRHLQIIYEINQRFLNRVAAAFPGDVDRLRRMSLVEEGAVKRINMAHLCIAGSHAVNGVARIHSEILKKTIFKDFYELEPHKFQNKTNGITPRRWLVLCNPGLAEIIAERIGEEYISDLDQLRKLLSYVDDEAFIRDVAKVKQENKLKFAAYLEREYKVHINPNSLFDVQVKRIHEYKRQLLNCLHVITLYNRIKKEPNKFVVPRTVMIGGKAAPGYHMAKMIIKLITAIGDVVNHDPVVGDRLRVIFLENYRVSLAEKVIPAADLSEQISTAGTEASGTGNMKFMLNGALTIGTMDGANVEMAEEAGEENFFIFGMRVEDVDRLDQRGYNAQEYYDRIPELRQIIEQLSSGFFSPKQPDLFKDIVNMLMHHDRFKVFADYEEYVKCQERVSALYKNPREWTRMVIRNIATSGKFSSDRTIAQYAREIWGVEPSRQRLPAPDEKIP
notes: glycogen phosphorylase b (muscle form), rabbit skeletal muscle; dimer of two identical subunits of 97.4 kDa; also called Phb; Phbfr (frozen-thawed Phb)
- stoichiometry N [2]: 2 and 4
